Data as given in IntAct's records for PubMed 21078995.

B1: Nitrate/nitrite sensor protein NarX (Escherichia coli (strain K12)), P0AFA2 (parent)
chain: MLKRCLSPLTLVNQVALIVLLSTAIGLAGMAVSGWLVQGVQGSAHAINKAGSLRMQSYRLLAAVPLSEKDKPLIKEMEQTAFSAELTRAAERDGQLAQLQGLQDYWRNELIPALMRAQNRETVSADVSQFVAGLDQLVSGFDRTTEMRIETVVLVHRVMAVFMALLLVFTIIWLRARLLQPWRQLLAMASAVSHRDFTQRANISGRNEMAMLGTALNNMSAELAESYAVLEQRVQEKTAGLEHKNQILSFLWQANRRLHSRAPLCERLSPVLNGLQNLTLLRDIELRVYDTDDEENHQEFTCQPDMTCDDKGCQLCPRGVLPVGDRGTTLKWRLADSHTQYGILLATLPQGRHLSHDQQQLVDTLVEQLTATLALDRHQERQQQLIVMEERATIARELHDSIAQSLSCMKMQVSCLQMQGDALPESSRELLSQIRNELNASWAQLRELLTTFRLQLTEPGLRPALEASCEEYSAKFGFPVKLDYQLPPRLVPSHQAIHLLQIAREALSNALKHSQASEVVVTVAQNDNQVKLTVQDNGCGVPENAIRSNHYGMIIMRDRAQSLRGDCRVRRRESGGTEVVVTFIPEKTFTDVQGDTHE

Variants of: B1
Conditions: with narl_ecoli narL

effect of a mutation on the interaction | Variant
disrupting interaction | MLKRCLSPLTLVNQVALIVLLSTAIGLAGMAVSGWLVQGVQGSAHAINKAGSLRMQSYRLLAAVPLSEKDKPLIKEMEQTAFSAELTRAAERDGQLAQLQGLQDYWRNELIPALMRAQNRETVSADVSQFVAGLDQLVSGFDRTTEMRIETVVLVHRVMAVFMALLLVFTIIWLRARLLQPWRQLLAMASAVSHRDFTQRANISGRNEMAMLGTALNNMSAELAESYAVLEQRVQEKTAGLEHKNQILSFLWQANRRLHSRAPLCERLSPVLNGLQNLTLLRDIELRVYDTDDEENHQEFTCQPDMTCDDKGCQLCPRGVLPVGDRGTTLKWRLADSHTQYGILLATLPQGRHLSHDQQQLVDTLVEQLTATLALDRHQERQQQLIVMEERATIARELQDSIAASLSCMKMQVSCLQMQGDALPESSRELLSQIRNELNASWAQLRELLTTFRLQLTEPGLRPALEASCEEYSAKFGFPVKLDYQLPPRLVPSHQAIHLLQIAREALSNALKHSQASEVVVTVAQNDNQVKLTVQDNGCGVPENAIRSNHYGMIIMRDRAQSLRGDCRVRRRESGGTEVVVTFIPEKTFTDVQGDTHE [H399Q;Q404A]
disrupting interaction | MLKRCLSPLTLVNQVALIVLLSTAIGLAGMAVSGWLVQGVQGSAHAINKAGSLRMQSYRLLAAVPLSEKDKPLIKEMEQTAFSAELTRAAERDGQLAQLQGLQDYWRNELIPALMRAQNRETVSADVSQFVAGLDQLVSGFDRTTEMRIETVVLVHRVMAVFMALLLVFTIIWLRARLLQPWRQLLAMASAVSHRDFTQRANISGRNEMAMLGTALNNMSAELAESYAVLEQRVQEKTAGLEHKNQILSFLWQANRRLHSRAPLCERLSPVLNGLQNLTLLRDIELRVYDTDDEENHQEFTCQPDMTCDDKGCQLCPRGVLPVGDRGTTLKWRLADSHTQYGILLATLPQGRHLSHDQQQLVDTLVEQLTATLALDRHQERQQQLIVMEERATIARELQDSIAHSLSCMKMQVSCLQMQGDALPESSRELLSQIRNELNASWAQLRELLTTFRLQLTEPGLRPALEASCEEYSAKFGFPVKLDYQLPPRLVPSHQAIHLLQIAREALSNALKHSQASEVVVTVAQNDNQVKLTVQDNGCGVPENAIRSNHYGMIIMRDRAQSLRGDCRVRRRESGGTEVVVTFIPEKTFTDVQGDTHE [H399Q;Q404H]
decreasing interaction | MLKRCLSPLTLVNQVALIVLLSTAIGLAGMAVSGWLVQGVQGSAHAINKAGSLRMQSYRLLAAVPLSEKDKPLIKEMEQTAFSAELTRAAERDGQLAQLQGLQDYWRNELIPALMRAQNRETVSADVSQFVAGLDQLVSGFDRTTEMRIETVVLVHRVMAVFMALLLVFTIIWLRARLLQPWRQLLAMASAVSHRDFTQRANISGRNEMAMLGTALNNMSAELAESYAVLEQRVQEKTAGLEHKNQILSFLWQANRRLHSRAPLCERLSPVLNGLQNLTLLRDIELRVYDTDDEENHQEFTCQPDMTCDDKGCQLCPRGVLPVGDRGTTLKWRLADSHTQYGILLATLPQGRHLSHDQQQLVDTLVEQLTATLALDRHQERQQQLIVMEERATIARELQASIAQSLSCMKMQVSCLQMQGDALPESSRELLSQIRNELNASWAQLRELLTTFRLQLTEPGLRPALEASCEEYSAKFGFPVKLDYQLPPRLVPSHQAIHLLQIAREALSNALKHSQASEVVVTVAQNDNQVKLTVQDNGCGVPENAIRSNHYGMIIMRDRAQSLRGDCRVRRRESGGTEVVVTFIPEKTFTDVQGDTHE [H399Q;D400A]
decreasing interaction | MLKRCLSPLTLVNQVALIVLLSTAIGLAGMAVSGWLVQGVQGSAHAINKAGSLRMQSYRLLAAVPLSEKDKPLIKEMEQTAFSAELTRAAERDGQLAQLQGLQDYWRNELIPALMRAQNRETVSADVSQFVAGLDQLVSGFDRTTEMRIETVVLVHRVMAVFMALLLVFTIIWLRARLLQPWRQLLAMASAVSHRDFTQRANISGRNEMAMLGTALNNMSAELAESYAVLEQRVQEKTAGLEHKNQILSFLWQANRRLHSRAPLCERLSPVLNGLQNLTLLRDIELRVYDTDDEENHQEFTCQPDMTCDDKGCQLCPRGVLPVGDRGTTLKWRLADSHTQYGILLATLPQGRHLSHDQQQLVDTLVEQLTATLALDRHQERQQQLIVMEERATIARELQDSIAQSLSCMKMQVSCLQMQGDALPESSRELLSQIRNELNASWAQLRELLTTFRLQLTEPGLRPALEASCEEYSAKFGFPVKLDYQLPPRLVPSHQAIHLLQIAREALSNALKHSQASEVVVTVAQNDNQVKLTVQDNGCGVPENAIRSNHYGMIIMRDRAQSLRGDCRVRRRESGGTEVVVTFIPEKTFTDVQGDTHE [H399Q]
